Measured values published in PMC7612376, “Structural basis of meiotic chromosome synaptic elongation through hierarchical fibrous assembly of SYCE2-TEX12” (Nature structural & molecular biology, 2021).

T1: SYCE2 core ΔS2C (amino-acids 57-154) (human, UniProt Q6PIF2 57-154)
T1 construct: SYCE2, human, ΔS2C, residues 57-154; source: E. coli BL21 (DE3), co-expressed with TEX12, purified (Ni-NTA, amylose, ion exchange, SEC); not shown: MBP, N-terminal, cleaved
T1 sequence (looked up): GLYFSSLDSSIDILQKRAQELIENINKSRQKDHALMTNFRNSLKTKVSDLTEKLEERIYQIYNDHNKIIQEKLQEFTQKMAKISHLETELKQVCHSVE

T2: SYCE2 full-length (1-218) (human, UniProt Q6PIF2 1-218)
T2 construct: SYCE2, human, full-length, residues 1-218; source: E. coli BL21 (DE3), co-expressed with TEX12, purified (Ni-NTA, amylose, ion exchange, SEC); not shown: MBP, N-terminal, cleaved
T2 sequence (looked up): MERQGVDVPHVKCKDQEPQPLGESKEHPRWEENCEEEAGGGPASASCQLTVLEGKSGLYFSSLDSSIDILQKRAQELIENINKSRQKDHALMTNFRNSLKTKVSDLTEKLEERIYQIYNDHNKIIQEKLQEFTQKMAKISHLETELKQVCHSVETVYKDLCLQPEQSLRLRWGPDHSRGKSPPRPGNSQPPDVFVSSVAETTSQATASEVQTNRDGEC

B1: SYCE2 core (amino-acids 57-165) (domain or fragment, human, UniProt Q6PIF2 57-165, looked up)
chain: GLYFSSLDSSIDILQKRAQELIENINKSRQKDHALMTNFRNSLKTKVSDLTEKLEERIYQIYNDHNKIIQEKLQEFTQKMAKISHLETELKQVCHSVETVYKDLCLQPE
notes: SYCE2, human, core, residues 57-165; also called SYCE2 structural core; source: E. coli BL21 (DE3), co-expressed with TEX12, purified (Ni-NTA, amylose, ion exchange, SEC); not shown: MBP, N-terminal, cleaved

Experiments:
[1] = biological target: the molecule itself; experiment: SEC-MALS; co-purified complexes at >1 mg/ml on Superdex 200 Increase 10/300 GL in 20 mM Tris pH 8.0, 150 mM KCl, 2 mM DTT; in Fig. 1 core at 200 uM and full-length at 100 uM (4 mg/ml)
[2] = biological target: T1, SYCE2 core ΔS2C (amino-acids 57-154); experiment: as above; settings: both partners purified
[3] = biological target: B1; experiment: as above; settings: both partners purified
[4] = biological target: the molecule itself; experiment: crystal structure; SYCE2-TEX12 core ΔCtip 2:2 complex, 33 mg/ml, 35 % MPD, 20°C; space group P21; PDB 6R17
[5] = biological target: T2, SYCE2 full-length (1-218); experiment: SEC-MALS; co-purified complexes at >1 mg/ml on Superdex 200 Increase 10/300 GL in 20 mM Tris pH 8.0, 150 mM KCl, 2 mM DTT; in Fig. 1 core at 200 uM and full-length at 100 uM (4 mg/ml); settings: both partners purified

Binder | percent of total mass as 4:4 complex [1] | stoichiometry N [1] | percent of total mass as 2:2 complex (not self-associated) [1] | further results
SYCE2-TEX12 core wild-type, 2:2 building block (complex, human, SYCE2, human, core, residues 57-165; TEX12, human, core, residues 49-123; in solution it is found as 4:4 complex and larger assemblies, which are the rows of this molecule with itself; also called core complex; wild-type core; source: E. coli BL21 (DE3), co-expressed, purified (Ni-NTA, amylose, ion exchange, SEC); not shown: MBP, N-terminal, cleaved; His6, N-terminal, cleaved; copies: 2 + 2) chain 1: GLYFSSLDSSIDILQKRAQELIENINKSRQKDHALMTNFRNSLKTKVSDLTEKLEERIYQIYNDHNKIIQEKLQEFTQKMAKISHLETELKQVCHSVETVYKDLCLQPE chain 2: KDEALEKDLNDVSKEINLMLSTYAKLLSERAAVDASYIDEIDELFKEANAIENFLIQKREFLRQRFTVIANTLHR | 75% | 2 2:2 building blocks |  | 
TEX12 core ΔCtip (amino-acids 49-113) (domain or fragment, human, UniProt Q9BXU0 49-113, looked up, TEX12, human, core ΔCtip, residues 49-113; source: E. coli BL21 (DE3), co-expressed with SYCE2, purified (Ni-NTA, amylose, ion exchange, SEC); not shown: His6, N-terminal, cleaved) KDEALEKDLNDVSKEINLMLSTYAKLLSERAAVDASYIDEIDELFKEANAIENFLIQKREFLRQR |  |  |  | stoichiometry N [2]: 1 TEX12 per SYCE2 (2:2); stoichiometry N [3]: 1 TEX12 per SYCE2 (2:2); binding result [4]: binds
SYCE2-TEX12 full-length wild-type, 2:2 building block (complex, human, SYCE2, human, full-length, residues 1-218; TEX12, human, full-length, residues 1-123; m2 + m9; also called full-length SYCE2-TEX12; source: E. coli BL21 (DE3), co-expressed, purified (Ni-NTA, amylose, ion exchange, SEC); not shown: MBP, N-terminal, cleaved; His6, N-terminal, cleaved; copies: 2 + 2) chain 1: MERQGVDVPHVKCKDQEPQPLGESKEHPRWEENCEEEAGGGPASASCQLTVLEGKSGLYFSSLDSSIDILQKRAQELIENINKSRQKDHALMTNFRNSLKTKVSDLTEKLEERIYQIYNDHNKIIQEKLQEFTQKMAKISHLETELKQVCHSVETVYKDLCLQPEQSLRLRWGPDHSRGKSPPRPGNSQPPDVFVSSVAETTSQATASEVQTNRDGEC chain 2: MMANHLVKPDNRNCKRPRELESPVPDSPQLSSLGKSDSSFSEISGLFYKDEALEKDLNDVSKEINLMLSTYAKLLSERAAVDASYIDEIDELFKEANAIENFLIQKREFLRQRFTVIANTLHR | 18% | 2 2:2 building blocks | 12% | 
SYCE2-TEX12 core ΔS2C/ΔCtip 2:2 complex (complex, human, SYCE2, human, ΔS2C, residues 57-154; TEX12, human, core ΔCtip, residues 49-113; m3 + m10; also called ΔS2C/ΔCtip core complex; source: E. coli BL21 (DE3), co-expressed, purified (Ni-NTA, amylose, ion exchange, SEC); not shown: MBP, N-terminal, cleaved; His6, N-terminal, cleaved; copies: 2 + 2) chain 1: GLYFSSLDSSIDILQKRAQELIENINKSRQKDHALMTNFRNSLKTKVSDLTEKLEERIYQIYNDHNKIIQEKLQEFTQKMAKISHLETELKQVCHSVE chain 2: KDEALEKDLNDVSKEINLMLSTYAKLLSERAAVDASYIDEIDELFKEANAIENFLIQKREFLRQR | 14% | 2 2:2 building blocks | 86% | 
SYCE2-TEX12 core H89E/Y115E, 2:2 building block (complex, human, SYCE2, human, core, residues 57-165, with H89E and Y115E; TEX12, human, core, residues 49-123; m4 + m8; also called H89E Y115E mutation; source: E. coli BL21 (DE3), co-expressed, purified (Ni-NTA, amylose, ion exchange, SEC); not shown: MBP, N-terminal, cleaved; His6, N-terminal, cleaved; copies: 2 + 2) chain 1: GLYFSSLDSSIDILQKRAQELIENINKSRQKDEALMTNFRNSLKTKVSDLTEKLEERIEQIYNDHNKIIQEKLQEFTQKMAKISHLETELKQVCHSVETVYKDLCLQPE chain 2: KDEALEKDLNDVSKEINLMLSTYAKLLSERAAVDASYIDEIDELFKEANAIENFLIQKREFLRQRFTVIANTLHR | 40% | 2 2:2 building blocks | 60% | 
SYCE2-TEX12 full-length FFV (TEX12 F102A F109A V116A), 2:2 building block (complex, human, SYCE2, human, full-length, residues 1-218; TEX12, human, full-length, residues 1-123, with F102A, F109A and V116A; m2 + m14; source: E. coli BL21 (DE3), co-expressed, purified (Ni-NTA, amylose, ion exchange, SEC); not shown: MBP, N-terminal, cleaved; His6, N-terminal, cleaved; copies: 2 + 2) chain 1: MERQGVDVPHVKCKDQEPQPLGESKEHPRWEENCEEEAGGGPASASCQLTVLEGKSGLYFSSLDSSIDILQKRAQELIENINKSRQKDHALMTNFRNSLKTKVSDLTEKLEERIYQIYNDHNKIIQEKLQEFTQKMAKISHLETELKQVCHSVETVYKDLCLQPEQSLRLRWGPDHSRGKSPPRPGNSQPPDVFVSSVAETTSQATASEVQTNRDGEC chain 2: MMANHLVKPDNRNCKRPRELESPVPDSPQLSSLGKSDSSFSEISGLFYKDEALEKDLNDVSKEINLMLSTYAKLLSERAAVDASYIDEIDELFKEANAIENALIQKREALRQRFTAIANTLHR | 20% | 2 2:2 building blocks | 15% | 
TEX12 ΔCtip (amino-acids 1-113) (domain or fragment, human, UniProt Q9BXU0 1-113, looked up, TEX12, human, ΔCtip, residues 1-113; also called TEX12 ΔCtip truncation; source: E. coli BL21 (DE3), co-expressed with SYCE2, purified (Ni-NTA, amylose, ion exchange, SEC); not shown: His6, N-terminal, cleaved) MMANHLVKPDNRNCKRPRELESPVPDSPQLSSLGKSDSSFSEISGLFYKDEALEKDLNDVSKEINLMLSTYAKLLSERAAVDASYIDEIDELFKEANAIENFLIQKREFLRQR |  |  |  | stoichiometry N [5]: 1 TEX12 per SYCE2 (2:2)
SYCE2-TEX12 core wild-type MBP-fusion, 2:2 building block (complex, human, SYCE2, human, core, residues 57-165; TEX12, human, core, residues 49-123; m6 + m16; found as a 4:4 complex in solution; also called SYCE2-TEX12 core MBP-fusion wild-type; source: E. coli BL21 (DE3), co-expressed, purified; not shown: MBP, N-terminal, kept; copies: 2 + 2) chain 1: GLYFSSLDSSIDILQKRAQELIENINKSRQKDHALMTNFRNSLKTKVSDLTEKLEERIYQIYNDHNKIIQEKLQEFTQKMAKISHLETELKQVCHSVETVYKDLCLQPE chain 2: KDEALEKDLNDVSKEINLMLSTYAKLLSERAAVDASYIDEIDELFKEANAIENFLIQKREFLRQRFTVIANTLHR |  | 2 2:2 building blocks |  | 
B1 |  |  |  | binding result [4]: binds
